Laboratory results: patent US8679766B2, “E-cadherin as a biomarker of gastroesophageal reflux disease” (The University of North Carolina at Chapel Hill, priority 2009, dated 2014)

Tested on: rabbit EE
Experiment: Barrier breaker search: rabbit EE in U-chambers, monitoring RT (marker of PCP) and Isc
Format: cell-based
Settings: at pH 2
Text: Agents that increase paracellular permeability (PCP) in EE are potential contributors to GERD by enabling diffusion of luminal acid into the intercellular space. Therefore, substances were sought within the refluxate, meals and inflammation that could ‘break the barrier’. This was done by exposing rabbit EE in U-chambers to candidate inflammatory agents while both monitoring RT, as a marker of PCP, and Isc (short circuit current), as a marker of active transport. The inflammatory agents were selected based on presence in EE or on reports that they can break the barrier in other epithelia (47-60).

B1: pepsin: barrier breaker identified at pH 2 (protein, UniProt P0DJD8 63-388, looked up)
Pepsin A-3: VDEQPLENYLDMEYFGTIGIGTPAQDFTVVFDTGSSNLWVPSVYCSSLACTNHNRFNPEDSSTYQSTSETVSITYGTGSMTGILGYDTVQVGGISDTNQIFGLSETEPGSFLYYAPFDGILGLAYPSISSSGATPVFDNIWNQGLVSQDLFSVYLSADDQSGSVVIFGGIDSSYYTGSLNWVPVTVEGYWQITVDSITMNGEAIACAEGCQAIVDTGTSLLTGPTSPIANIQSDIGASENSDGDMVVSCSAISSLPDIVFTINGVQYPVPPSAYILQSEGSCISGFQGMNLPTESGELWILGDVFIRQYFTVFDRANNQVGLAPVA
breaks the barrier (RT as marker of PCP): barrier breakers
